Test results reported in the supplement of paper PMC10065799, “High-throughput profiling of sequence recognition by tyrosine kinases and SH2 domains using bacterial peptide display” (eLife, 2023).

Experiments:
AncSZ = experiment: phosphorylation enrichment, bacterial display (enrichment ratio); higher = better substrate or ligand; peptides without Tyr show the background
EPHB1 = EPHB1 (UniProt P54762); experiment: as above
EPHB2 = EPHB2 (UniProt P29323); experiment: as above
FGFR1 = FGFR1 (UniProt P11362); experiment: as above
FGFR3 = FGFR3 (UniProt P22607); experiment: as above
Fer (mouse) = experiment: as above
Fes = Fes (UniProt P07332); experiment: as above
Fyn = Fyn (UniProt P06241); experiment: as above
Hck = Hck (UniProt P08631); experiment: as above
Jak2 = Jak2 (UniProt O60674); experiment: as above
MERTK = MERTK (UniProt Q12866); experiment: as above
c-Abl (mouse) = experiment: as above
c-Src = experiment: as above
Grb2 SH2 = Grb2 SH2 (UniProt P62993); experiment: SH2 binding enrichment of the phosphorylated peptide, bacterial display (enrichment ratio); higher = better substrate or ligand; peptides without Tyr show the background
SHP2-C SH2 = experiment: as above
c-Src SH2 = experiment: as above
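Wherever SH2 binding enrichment of the phosphorylated peptide, bacterial display is given: peptide library displayed on the E. coli surface as eCPX fusions, selected cells deep-sequenced, score is each peptide's frequency after selection divided by its frequency in the input.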
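Wherever phosphorylation enrichment, bacterial display is given: 11-residue human phosphosite peptides and single-mutation variants displayed on the E. coli surface, counted by deep sequencing, each peptide's frequency after selection divided by its frequency in the unselected input library; frequency after pTyr selection over input frequency; kinase dosed for 20-30% of maximal phosphorylation in three min.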

Chain of Jak2 (O60674 whole entry, looked up): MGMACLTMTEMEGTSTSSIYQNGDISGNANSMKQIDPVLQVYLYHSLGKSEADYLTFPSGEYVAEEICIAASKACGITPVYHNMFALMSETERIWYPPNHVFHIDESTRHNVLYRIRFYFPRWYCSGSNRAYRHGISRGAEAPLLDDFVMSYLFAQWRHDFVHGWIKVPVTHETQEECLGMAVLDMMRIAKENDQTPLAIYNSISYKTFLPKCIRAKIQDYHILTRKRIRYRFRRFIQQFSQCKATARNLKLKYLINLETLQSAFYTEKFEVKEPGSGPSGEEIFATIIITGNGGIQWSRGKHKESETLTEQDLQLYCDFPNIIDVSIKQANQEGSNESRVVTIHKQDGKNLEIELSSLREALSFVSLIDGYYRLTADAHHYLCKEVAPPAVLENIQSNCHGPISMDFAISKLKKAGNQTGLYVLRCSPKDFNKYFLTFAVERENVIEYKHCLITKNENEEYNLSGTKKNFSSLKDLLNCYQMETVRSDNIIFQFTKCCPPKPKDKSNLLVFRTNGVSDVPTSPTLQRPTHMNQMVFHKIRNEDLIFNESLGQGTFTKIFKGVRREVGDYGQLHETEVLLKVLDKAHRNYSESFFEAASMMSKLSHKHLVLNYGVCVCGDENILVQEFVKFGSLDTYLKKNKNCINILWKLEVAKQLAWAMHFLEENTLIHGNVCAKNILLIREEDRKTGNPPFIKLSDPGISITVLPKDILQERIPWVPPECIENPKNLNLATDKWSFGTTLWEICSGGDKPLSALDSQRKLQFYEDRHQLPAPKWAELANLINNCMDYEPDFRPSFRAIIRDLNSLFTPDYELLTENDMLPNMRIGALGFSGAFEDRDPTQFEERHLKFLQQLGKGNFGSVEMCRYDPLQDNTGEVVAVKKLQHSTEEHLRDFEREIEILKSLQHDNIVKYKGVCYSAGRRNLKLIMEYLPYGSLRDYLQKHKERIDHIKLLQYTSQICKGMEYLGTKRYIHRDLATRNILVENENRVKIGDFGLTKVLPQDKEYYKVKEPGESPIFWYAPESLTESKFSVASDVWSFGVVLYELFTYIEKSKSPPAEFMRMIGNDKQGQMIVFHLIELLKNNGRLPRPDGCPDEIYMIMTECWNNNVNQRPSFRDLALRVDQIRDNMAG
Chain of FGFR1 (P11362 whole entry, looked up): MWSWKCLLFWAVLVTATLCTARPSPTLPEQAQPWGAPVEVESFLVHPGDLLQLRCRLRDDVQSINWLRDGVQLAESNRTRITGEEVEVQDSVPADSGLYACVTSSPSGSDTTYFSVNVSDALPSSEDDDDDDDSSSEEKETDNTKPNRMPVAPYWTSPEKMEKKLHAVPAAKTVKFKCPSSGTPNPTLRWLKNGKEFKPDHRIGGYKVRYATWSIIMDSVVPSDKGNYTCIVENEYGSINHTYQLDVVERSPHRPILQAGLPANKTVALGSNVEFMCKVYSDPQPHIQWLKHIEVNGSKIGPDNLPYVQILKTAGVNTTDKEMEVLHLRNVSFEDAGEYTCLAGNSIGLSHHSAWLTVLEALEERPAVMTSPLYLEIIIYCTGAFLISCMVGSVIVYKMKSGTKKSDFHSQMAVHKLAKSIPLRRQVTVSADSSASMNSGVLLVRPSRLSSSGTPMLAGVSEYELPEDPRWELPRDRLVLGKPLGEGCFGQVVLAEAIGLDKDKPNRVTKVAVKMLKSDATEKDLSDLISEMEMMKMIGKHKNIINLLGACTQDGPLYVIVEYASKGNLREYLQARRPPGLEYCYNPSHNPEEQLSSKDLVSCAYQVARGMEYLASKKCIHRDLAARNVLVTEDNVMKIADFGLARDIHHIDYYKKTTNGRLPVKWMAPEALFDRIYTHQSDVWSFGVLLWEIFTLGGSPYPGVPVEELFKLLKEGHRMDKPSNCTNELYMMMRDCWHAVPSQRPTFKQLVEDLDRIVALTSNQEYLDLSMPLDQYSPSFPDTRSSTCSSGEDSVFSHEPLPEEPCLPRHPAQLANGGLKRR
Chain of Grb2 SH2 (P62993 whole entry, looked up): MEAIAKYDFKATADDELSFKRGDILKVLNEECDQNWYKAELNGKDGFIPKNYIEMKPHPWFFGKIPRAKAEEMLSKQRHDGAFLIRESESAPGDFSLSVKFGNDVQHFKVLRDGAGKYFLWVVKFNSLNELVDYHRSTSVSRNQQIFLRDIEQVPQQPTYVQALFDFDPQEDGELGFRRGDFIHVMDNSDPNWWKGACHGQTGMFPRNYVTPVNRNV
Chain of FGFR3 (P22607 whole entry, looked up): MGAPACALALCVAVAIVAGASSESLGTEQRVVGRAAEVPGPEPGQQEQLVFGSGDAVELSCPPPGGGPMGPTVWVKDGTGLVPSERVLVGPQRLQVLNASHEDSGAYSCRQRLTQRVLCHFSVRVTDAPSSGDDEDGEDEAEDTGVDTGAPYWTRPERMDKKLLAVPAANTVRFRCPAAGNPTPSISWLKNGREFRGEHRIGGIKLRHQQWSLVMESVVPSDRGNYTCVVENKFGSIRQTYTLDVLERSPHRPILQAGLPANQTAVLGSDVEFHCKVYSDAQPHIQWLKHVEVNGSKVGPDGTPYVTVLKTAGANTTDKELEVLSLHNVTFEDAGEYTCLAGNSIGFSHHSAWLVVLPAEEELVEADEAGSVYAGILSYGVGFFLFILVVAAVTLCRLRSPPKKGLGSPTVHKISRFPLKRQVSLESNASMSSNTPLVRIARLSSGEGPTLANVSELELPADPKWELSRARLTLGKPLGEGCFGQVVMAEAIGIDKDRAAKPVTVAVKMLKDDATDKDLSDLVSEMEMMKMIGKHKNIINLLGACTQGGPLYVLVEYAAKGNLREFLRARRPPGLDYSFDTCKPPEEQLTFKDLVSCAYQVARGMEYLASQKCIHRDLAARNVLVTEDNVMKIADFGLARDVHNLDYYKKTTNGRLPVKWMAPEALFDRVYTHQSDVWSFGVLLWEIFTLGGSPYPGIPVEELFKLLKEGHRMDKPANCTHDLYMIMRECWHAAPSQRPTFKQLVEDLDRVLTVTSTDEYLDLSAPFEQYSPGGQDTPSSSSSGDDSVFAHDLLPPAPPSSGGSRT
Chain of Fyn (P06241 whole entry, looked up): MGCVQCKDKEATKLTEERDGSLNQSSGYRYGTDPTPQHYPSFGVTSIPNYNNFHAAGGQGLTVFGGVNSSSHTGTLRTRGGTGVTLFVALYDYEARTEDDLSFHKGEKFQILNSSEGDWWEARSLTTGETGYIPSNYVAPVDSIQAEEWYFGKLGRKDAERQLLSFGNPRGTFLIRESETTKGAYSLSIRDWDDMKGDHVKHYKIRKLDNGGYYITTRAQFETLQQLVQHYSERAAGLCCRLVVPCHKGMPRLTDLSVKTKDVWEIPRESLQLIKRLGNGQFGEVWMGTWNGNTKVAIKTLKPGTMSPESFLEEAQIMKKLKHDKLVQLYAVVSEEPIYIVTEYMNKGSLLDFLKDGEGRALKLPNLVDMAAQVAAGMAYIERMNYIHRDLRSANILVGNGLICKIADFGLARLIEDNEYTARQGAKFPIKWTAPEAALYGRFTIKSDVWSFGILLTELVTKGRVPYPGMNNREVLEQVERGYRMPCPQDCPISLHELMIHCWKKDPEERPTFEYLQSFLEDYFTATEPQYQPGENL
Chain of MERTK (Q12866 whole entry, looked up): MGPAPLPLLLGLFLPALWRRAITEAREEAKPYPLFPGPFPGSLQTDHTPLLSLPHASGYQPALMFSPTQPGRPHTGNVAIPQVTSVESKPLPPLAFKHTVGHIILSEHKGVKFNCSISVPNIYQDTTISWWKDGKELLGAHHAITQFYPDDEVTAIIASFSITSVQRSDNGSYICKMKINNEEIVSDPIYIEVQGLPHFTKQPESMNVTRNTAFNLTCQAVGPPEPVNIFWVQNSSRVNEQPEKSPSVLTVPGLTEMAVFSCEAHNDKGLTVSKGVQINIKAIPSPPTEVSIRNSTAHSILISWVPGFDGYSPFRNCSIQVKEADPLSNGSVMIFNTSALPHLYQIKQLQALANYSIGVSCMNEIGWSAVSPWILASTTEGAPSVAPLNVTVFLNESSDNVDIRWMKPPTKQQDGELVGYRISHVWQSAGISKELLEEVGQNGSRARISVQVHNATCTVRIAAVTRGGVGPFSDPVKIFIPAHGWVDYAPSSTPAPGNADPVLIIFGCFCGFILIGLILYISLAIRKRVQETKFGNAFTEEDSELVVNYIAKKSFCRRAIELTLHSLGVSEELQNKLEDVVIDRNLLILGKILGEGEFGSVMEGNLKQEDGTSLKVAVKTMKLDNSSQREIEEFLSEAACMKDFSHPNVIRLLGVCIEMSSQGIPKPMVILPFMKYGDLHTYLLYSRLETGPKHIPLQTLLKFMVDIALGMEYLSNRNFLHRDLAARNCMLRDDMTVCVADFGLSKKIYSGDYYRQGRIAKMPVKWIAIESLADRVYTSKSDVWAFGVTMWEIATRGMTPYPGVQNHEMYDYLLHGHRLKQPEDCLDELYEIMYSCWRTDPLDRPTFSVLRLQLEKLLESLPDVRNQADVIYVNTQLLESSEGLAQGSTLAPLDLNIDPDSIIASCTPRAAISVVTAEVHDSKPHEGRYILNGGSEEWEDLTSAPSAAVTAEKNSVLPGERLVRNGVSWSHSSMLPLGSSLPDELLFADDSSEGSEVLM
Chain of Hck (P08631 whole entry, looked up): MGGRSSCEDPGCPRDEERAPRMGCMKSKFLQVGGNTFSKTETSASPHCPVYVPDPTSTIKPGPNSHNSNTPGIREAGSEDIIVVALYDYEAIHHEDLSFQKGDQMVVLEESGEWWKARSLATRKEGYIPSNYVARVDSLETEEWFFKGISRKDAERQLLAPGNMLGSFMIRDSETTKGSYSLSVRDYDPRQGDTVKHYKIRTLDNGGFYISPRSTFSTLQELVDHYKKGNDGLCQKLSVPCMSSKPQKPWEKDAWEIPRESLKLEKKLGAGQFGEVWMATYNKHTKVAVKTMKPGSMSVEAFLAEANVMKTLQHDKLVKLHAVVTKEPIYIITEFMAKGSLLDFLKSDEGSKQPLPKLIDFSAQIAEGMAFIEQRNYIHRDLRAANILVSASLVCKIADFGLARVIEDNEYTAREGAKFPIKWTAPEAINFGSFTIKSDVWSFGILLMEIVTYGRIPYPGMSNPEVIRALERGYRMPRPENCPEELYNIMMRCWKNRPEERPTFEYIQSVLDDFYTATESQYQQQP

Sequence	phosphorylation enrichment (AncSZ)	phosphorylation enrichment (EPHB1)	phosphorylation enrichment (EPHB2)	phosphorylation enrichment (FGFR1)	phosphorylation enrichment (FGFR3)	phosphorylation enrichment (Fer (mouse))	phosphorylation enrichment (Fes)	phosphorylation enrichment (Fyn)	phosphorylation enrichment (Hck)	phosphorylation enrichment (Jak2)	phosphorylation enrichment (MERTK)	phosphorylation enrichment (c-Abl (mouse))	phosphorylation enrichment (c-Src)	SH2 binding enrichment (Grb2 SH2)	SH2 binding enrichment (SHP2-C SH2)	SH2 binding enrichment (c-Src SH2)
PLLEYYWDIFT [CDAN1_Y713_R714W]	2.64	2.64	1.28	8.76	7.06	0.906	2.27	1.32	0.79	2.65	1.02	1.61	1.19	1.25	1.25	0.959
EGTGHYLCNAC [GATA5_Y208_D203E]	0.524	0.354	0.375	0.462	0.566	0.378	0.57	0.411	0.352	0.505	0.54	0.525	0.395	1.09	0.81	0.445
NTDETYCIDNK [TUBB3_Y200_E205K]	1.23	0.721	0.577	0.53	0.783	0.729	1.34	0.781	0.592	1.37	0.407	0.834	0.976	0.96	0.955	0.572
APQFTYTQGGQ [FLNA_Y1763_A1764T_YF]	0.602	0.444	0.536	0.482	0.582	0.423	0.681	0.5	0.395	0.552	0.367	0.444	0.42	0.75	0.503	0.597
FEGRSYSACTT [MMP9_Y241]	0.926	0.643	0.616	0.728	0.709	0.516	1.13	0.541	0.557	0.947	0.492	0.856	0.428	0.818	0.598	0.573
ADPQEYIPLPA [JAKtide_2014]	0.904	0.529	0.49	0.75	0.693	0.457	0.983	0.512	0.549	0.865	0.425	0.628	0.468	1	0.809	0.571
QYQEKYKQMEQ [HCN4_Y531_V534M]	0.99	0.61	0.507	0.618	0.827	0.632	1.23	0.547	0.431	0.684	0.287	0.584	0.374	0.891	0.705	0.436
EKLIQYCQSKG [AKR1B1_Y199]	0.52	0.487	0.563	0.44	0.493	0.425	0.644	0.448	0.446	0.573	0.423	0.462	0.479	0.854	0.466	0.572
SMAKYYASGIA [ACADSB_Y373_E376G]	0.497	0.408	0.7	0.437	0.469	0.444	0.622	0.331	0.463	0.665	0.381	0.599	0.394	0.771	0.791	0.578
LVMFTYAIFGM [SCN1A_Y1684_I1683T]	2.09	1.78	1.43	0.728	1.73	1.08	2.16	2.15	1.48	2.23	0.937	1.82	2.9	1.16	0.762	0.542
ENELTYFCFKK [CD59_Y86_C89Y_YF]	1.71	0.796	0.667	1.06	1.29	0.541	1.57	4.33	3.63	2.43	1.16	3.38	4.58	0.746	0.6	0.414
DENRFYTRAAS [RPS19_Y54_W52R]	1.01	0.497	0.478	0.515	0.644	0.478	0.907	0.488	0.466	0.721	0.45	0.684	0.494	1.11	0.789	0.876
LTVVIYVLIGR [EPHA3_Y561]	1.39	1.05	1.77	0.691	1.26	1.83	2.13	0.567	0.839	0.844	0.697	1.9	0.643	1.64	1.36	0.918
QLPRGYISILV [BAG3_Y205_P209L]	1.11	0.583	0.848	0.589	0.748	0.663	1.38	0.563	0.675	1.07	0.611	0.806	0.479	1.04	0.682	0.6
PIYEGYALPHA [ACTA1_Y171]	2.11	27.2	35.7	1.01	0.995	26.2	3.4	19.8	17.3	1.4	18.1	31.3	14.8	0.72	0.617	2.12
HEKRAYICAHP [ACAD9_Y611_L606H]	0.742	0.454	0.434	0.543	0.548	0.593	0.77	0.447	0.49	1.3	0.439	0.59	0.448	0.96	0.962	0.969
NTEGGYCCICA [CRELD1_Y328_R329C]	1.02	0.497	0.657	0.562	0.668	0.583	0.966	0.512	0.911	0.878	0.673	0.894	0.529	0.704	0.693	0.632
LFLASYCIGGG [UBD_Y161_C160S]	1.22	0.655	0.788	1.06	1.04	0.671	1.63	0.416	0.533	1.21	0.537	0.886	0.495	0.847	0.815	0.521
LHSEAYLKFNE [PBRM1_Y1610_I1614N_YF]	1.53	0.438	0.651	0.72	0.945	0.493	1.31	1.05	0.488	1.06	0.737	0.922	0.707	1.34	1	0.539
DSILVYQRKEQ [USH2A_Y1909_G1911R]	0.636	0.455	0.546	0.517	0.579	0.487	0.744	0.506	0.55	0.7	0.475	0.55	0.626	0.939	1.18	0.552
TDRNLYSKNLV [CFAP58_Y501_S496T]	0.564	0.555	0.56	0.505	0.531	1.35	0.737	0.465	0.654	0.758	0.959	0.66	0.627	0.769	0.559	0.408
SKEPYYVRCIK [MYO1D_Y586]	1.06	0.566	0.511	0.58	0.669	0.501	0.966	0.417	0.405	1	0.403	0.705	0.451	0.748	0.674	0.498
QITQVYGFFHE [PPP2CA_Y127_D131H_YF]	1.67	0.788	1.11	0.647	1.26	0.72	1.39	17.8	14.3	0.915	5.31	1.14	9.89	1.03	0.646	0.745
IIEDPYYGNDS [ACP1_Y132]	1.46	0.561	0.623	0.851	0.869	0.632	1.22	0.958	0.918	1.33	0.522	0.849	2.73	0.88	0.492	0.837
LLVVLNKYRCY [PSEN1_Y154_Y154N]	1.34	1.03	0.875	0.73	1.39	0.53	1.6	0.631	0.448	1.68	0.456	0.96	0.577	0.952	0.79	0.536
ESSKAYERDLS [TTC37_Y1074_A1077D]	0.735	0.394	0.488	0.384	0.524	0.519	0.771	0.419	0.456	0.499	0.432	0.533	0.402	0.681	0.715	0.471
MAPQMYESHLP [NCAPD2_Y6_F8S]	0.501	0.548	0.702	0.477	0.657	9.41	0.555	0.45	0.568	0.524	0.466	0.437	0.378	0.76	0.495	0.71
PVQAAYQNVVA [HBB_Y131_K133N]	0.931	0.915	0.567	0.699	0.692	0.98	0.877	0.644	0.536	0.645	0.591	0.591	0.49	34.4	1.49	3.07
FADIAYNFRHG [PAH_Y166_YF]	0.67	0.522	0.514	0.581	0.512	0.396	0.713	0.558	0.506	0.734	0.428	0.578	0.532	0.878	0.78	0.516
